The target of the assay is S protein of GD03T on pseudotyped HIV (SARS-CoV (GD03T isolate)). In words: cell-based or functional assay.

For 80R IgG1 (antibody), the S-protein-pseudotyped HIV luciferase infection of ACE2-expressing 293T cells was more than 50 µg/mL.

The values are drawn from US20050249739A1.
